# PMC7102971 (Nucleic Acids Research, 2020)
# Molecular target: the molecule itself
# Assay: crystal structure
protein,measurement,value
SFPQ-276-535 (dimerization domain of human SFPQ) (domain or fragment) EGFKANLSLLRRPGEKTYTQRCRLFVGNLPADITEDEFKRLFAKYGEPGEVFINKGKGFGFIKLESRALAEIAKAELDDTPMRGRQLRVRFATHAAALSVRNLSPYVSNELLEEAFSQFGPIERAVVIVDDRGRSTGKGIVEFASKPAARKAFERCSEGVFLLTTTPRPVIVEPLEQLDDEDGLPEKLAQKNPMYQKERETPPRFAQHGTFEYEYSQRWKSLDEMEKQQREQVEKNMKDAKDKLESEMEDAYHEHQANLL,binding result,binds
